Earlier results, collected in publication PMC9760423.

Columns and labels:
[1] = target: Cdc4 (Saccharomyces cerevisiae) (UniProt P07834)
4E-BP2 (Homo sapiens) = 4E-BP2 (Homo sapiens) (UniProt Q13542)
Chain of UniProt Q13542 (Q13542 whole entry): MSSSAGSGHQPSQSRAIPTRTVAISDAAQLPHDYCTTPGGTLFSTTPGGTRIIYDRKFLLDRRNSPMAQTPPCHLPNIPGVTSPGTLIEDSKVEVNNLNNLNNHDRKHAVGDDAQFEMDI

Chain of UniProt P07834 (P07834 whole entry): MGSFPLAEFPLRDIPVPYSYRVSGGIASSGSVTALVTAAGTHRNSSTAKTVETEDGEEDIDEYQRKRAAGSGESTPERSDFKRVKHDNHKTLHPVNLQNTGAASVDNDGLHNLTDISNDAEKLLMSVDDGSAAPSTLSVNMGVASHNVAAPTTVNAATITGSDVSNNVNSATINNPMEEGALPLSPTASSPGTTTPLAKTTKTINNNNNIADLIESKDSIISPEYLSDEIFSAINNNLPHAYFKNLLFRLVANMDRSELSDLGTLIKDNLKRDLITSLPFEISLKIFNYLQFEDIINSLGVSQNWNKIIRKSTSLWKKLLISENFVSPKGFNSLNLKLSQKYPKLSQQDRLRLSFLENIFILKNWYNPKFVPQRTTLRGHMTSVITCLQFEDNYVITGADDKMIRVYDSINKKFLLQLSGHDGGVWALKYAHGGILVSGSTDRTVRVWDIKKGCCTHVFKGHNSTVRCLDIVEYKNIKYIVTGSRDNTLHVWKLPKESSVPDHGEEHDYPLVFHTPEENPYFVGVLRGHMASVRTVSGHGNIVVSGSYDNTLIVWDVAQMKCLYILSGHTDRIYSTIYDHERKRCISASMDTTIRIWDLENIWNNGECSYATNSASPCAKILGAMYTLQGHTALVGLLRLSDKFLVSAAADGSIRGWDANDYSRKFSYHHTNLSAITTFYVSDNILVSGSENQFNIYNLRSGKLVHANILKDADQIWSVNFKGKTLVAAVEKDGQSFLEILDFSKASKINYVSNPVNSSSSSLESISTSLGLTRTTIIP

Substance | Kd [1] [nM] | Kd (4E-BP2 (Homo sapiens)) [nM]
Sic1 (from UniProt P38634) | 1000 | 
eIF4E (from UniProt P06730) |  | 3.2
